Results as given in US20200199231A1 (Genmab, published 2020).
Residue numbers refer to the chain shown, from its start.

T1: human CD20 (human, UniProt P11836 1-297)
T1 construct: whole, on cells; On Daudi and other human B cell lines, on human B cells in blood, or transiently expressed in HEK293F cells (construct pEE12.4CD20HS-GA); also called wild type CD20; WT CD20
T1 sequence (looked up): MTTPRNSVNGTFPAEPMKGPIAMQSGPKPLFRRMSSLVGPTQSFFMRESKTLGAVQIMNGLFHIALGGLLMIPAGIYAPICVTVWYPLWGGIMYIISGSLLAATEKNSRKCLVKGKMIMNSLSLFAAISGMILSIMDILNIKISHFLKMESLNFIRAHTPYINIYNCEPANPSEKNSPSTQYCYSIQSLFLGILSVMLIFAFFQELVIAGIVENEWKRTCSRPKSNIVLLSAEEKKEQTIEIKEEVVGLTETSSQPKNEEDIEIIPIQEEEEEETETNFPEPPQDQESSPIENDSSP

T2: CD20 KDD mutant (human, UniProt P11836 1-297)
T2 construct: whole, on cells; Transiently expressed in HEK293F cells; also called T159K/N163D/N166D
T2 sequence (looked up): T1 sequence (looked up) with T159K, N163D, N166D

T3: CD20-AxP (human, UniProt P11836 1-297)
T3 construct: whole, on cells; Transiently expressed in HEK293F cells; also called AxP mutant; CD20 mutant (CD20-AxP)
T3 sequence (looked up): T1 sequence (looked up) with A170S, P172S

B1: IgG1-11B8 (antibody, V domains shown)
VH: EVQLVQSGGGLVHPGGSLRLSCTGSGFTFSYHAMHWVRQAPGKGLEWVSIIGTGGVTYYADSVKGRFTISRDNVKNSLYLQMNSLRAEDMAVYYCARDYYGAGSFYDGLYGMDVWGQGTTVTVSS
VL: EIVLTQSPATLSLSPGERATLSCRASQSVSSYLAWYQQKPGQAPRLLIYDASNRATGIPARFSGSGSGTDFTLTISSLEPEDFAVYYCQQRSDWPLTFGGGTKVEIK
notes: Monospecific, bivalent IgG1
B2: bsIgG1-huCD3-H1L1-FEALxCD20-2C6-FEAR (bispecific antibody)
heavy 1: not shown
light: not shown
heavy 2: AVQLVESGGGLVQPGRSLRLSCAASGFTFGDYTMHWVRQAPGKGLEWVSGISWNSGSIGYADSVKGRFTISRDNAKNSLYLQMNSLRAEDTALYYCTKDNQYGSGSTYGLGVWGQGTLVTVSSASTKGPSVFPLAPSSKSTSGGTAALGCLVKDYFPEPVTVSWNSGALTSGVHTFPAVLQSSGLYSLSSVVTVPSSSLGTQTYICNVNHKPSNTKVDKRVEPKSCDKTHTCPPCPAPEFEGGPSVFLFPPKPKDTLMISRTPEVTCVVVAVSHEDPEVKFNWYVDGVEVHNAKTKPREEQYNSTYRVVSVLTVLHQDWLNGKEYKCKVSNKALPAPIEKTISKAKGQPREPQVYTLPPSREEMTKNQVSLTCLVKGFYPSDIAVEWESNGQPENNYKTTPPVLDSDGSFFLYSRLTVDKSRWQQGNVFSCSVMHEALHNHYTQKSLSLSPGK
VL: B1 VL with D93N
notes: also called CD3x2C6; huCD3x2C6
B3: IgG1-7D8 (antibody, V domains shown)
VH: EVQLVESGGGLVQPDRSLRLSCAASGFTFHDYAMHWVRQAPGKGLEWVSTISWNSGTIGYADSVKGRFTISRDNAKNSLYLQMNSLRAEDTALYYCAKDIQYGNYYYGMDVWGQGTTVTVSS
VL: B1 VL with D93N, L96I, G100Q, K103R, V104L
notes: Monospecific, bivalent IgG1
B4: bsIgG1-huCLB-T3/4-FEALxCD20-2F2-FEAR (bispecific antibody)
heavy 1: EVQLVESGGGLVKPGGSLRLSCAASGFTFSSYGMFWVRQAPGKGLEWVATISRYSRYIYYPDSVKGRFTISRDNAKNSLYLQMNSLRAEDTAVYYCARRPLYGSSPDYWGQGTLVTVSSASTKGPSVFPLAPSSKSTSGGTAALGCLVKDYFPEPVTVSWNSGALTSGVHTFPAVLQSSGLYSLSSVVTVPSSSLGTQTYICNVNHKPSNTKVDKRVEPKSCDKTHTCPPCPAPEFEGGPSVFLFPPKPKDTLMISRTPEVTCVVVAVSHEDPEVKFNWYVDGVEVHNAKTKPREEQYNSTYRVVSVLTVLHQDWLNGKEYKCKVSNKALPAPIEKTISKAKGQPREPQVYTLPPSREEMTKNQVSLTCLVKGFYPSDIAVEWESNGQPENNYKTTPPVLDSDGSFLLYSKLTVDKSRWQQGNVFSCSVMHEALHNHYTQKSLSLSPGK
VL 1: EIVLTQSPATLSLSPGERATLSCSASSSVTYVHWYQQKPGQAPRLLIYDTSKLASGIPARFSGSGSGTDFTLTISSLEPEDFAVYYCFQGSGYPLTFGSGTKLEMR
heavy 2: EVQLVESGGGLVQPGRSLRLSCAASGFTFNDYAMHWVRQAPGKGLEWVSTISWNSGSIGYADSVKGRFTISRDNAKKSLYLQMNSLRAEDTALYYCAKDIQYGNYYYGMDVWGQGTTVTVSSASTKGPSVFPLAPSSKSTSGGTAALGCLVKDYFPEPVTVSWNSGALTSGVHTFPAVLQSSGLYSLSSVVTVPSSSLGTQTYICNVNHKPSNTKVDKRVEPKSCDKTHTCPPCPAPEFEGGPSVFLFPPKPKDTLMISRTPEVTCVVVAVSHEDPEVKFNWYVDGVEVHNAKTKPREEQYNSTYRVVSVLTVLHQDWLNGKEYKCKVSNKALPAPIEKTISKAKGQPREPQVYTLPPSREEMTKNQVSLTCLVKGFYPSDIAVEWESNGQPENNYKTTPPVLDSDGSFFLYSRLTVDKSRWQQGNVFSCSVMHEALHNHYTQKSLSLSPGK
VL 2: B1 VL with D93N, L96I, G100Q, K103R, V104L
notes: also called huCLB-T3/4x2F2; bsIgG1-huCLB-3/4-FEALxCD20-2F2-FEAR

Assays:
human CD20 [1] = target: T1, human CD20; experiment: flow cytometry on Daudi cells (CD20-positive, CD3-negative); PE-conjugated goat anti-human IgG F(ab')2; geomean (PE)
Description: (§1) In addition to the non-activating mutations, L234F, L235E, D265A, on both arms, the bispecific antibody contained an F405L mutation on one arm and a K409R mutation on the other arm.
(§2) Cells (1×10⁵ cells/well) were incubated in polystyrene 96-well round-bottom plates (Greiner bio-one, cat. no. 650101) with serial dilutions of antibodies (range 0.041 to 30 μg/mL in 3-fold dilution steps [A-E] and 0.00061 to 10 μg/mL in 4-fold dilution steps [F-I]) in 100 μL PBS/0.1% BSA/0.02% azide (from here designated as staining buffer) at 4° C. for 30 min.
(§3) After washing twice in staining buffer, cells were incubated in 50 μL secondary antibody at 4° C. for 30 min. As a secondary antibody, R-Phycoerythrin (PE)-conjugated goat-anti-human IgG F(ab′)₂ (cat. no. 109-116-098, Jackson ImmunoResearch Laboratories, Inc., West Grove, Pa.) diluted 1:200 in staining buffer, was used for all experiments. Next, cells were washed twice in staining buffer, re-suspended in 30 μL staining buffer and analyzed on an iQue screener (Intellicyt Corporation, USA) (for FIG. 1A-E) or re-suspended in 100 μL staining buffer and analyzed on a FACSCANTOII (BD Biosciences) (FIG. 1F-I). Binding curves were analyzed using non-linear regression (sigmoidal dose-response with variable slope) using GraphPad Prism V75.04 software (GraphPad Software, San Diego, Calif., USA).

human CD20 [2] = target: T1, human CD20; experiment: flow cytometry on HEK293F cells transiently expressing wild type CD20; PE-conjugated goat anti-human IgG F(ab')2; MFI
Description: (§4) PCR was performed on a Tgradient Thermocycler 96 (Biometra) using a 35 cycle program of: +95° C. for 15 min, followed by 35 cycles of: +94° C. for 30 sec, anneal: 55° C. for 30 sec and extension: +72° C. for 2 min, followed by a final extension step at 72° C. for 10 min and subsequent storage at 4° C. The completed reactions were analyzed by agarose gel electrophoresis. See Table 11 for details of primer pairs used for colony PCR. DNA sequencing: Plasmid DNA samples were send to AGOWA (Berlin, Germany) for sequence analysis. Sequences were analyzed using the VectorNTI software package (Informax, Frederick, Md., USA).
(§5) Mutagenesis: The mutagenesis was performed, using the QuikChange® XL Site-Directed Mutagenesis kit (Cat 200517-5, Lot 1120630, Stratagene Europe) according to the manufacturer's instructions. Mutagenesis reactions were concentrated using ethanol precipitation and transformed into either oneshot DH5α-TIR competent E. coli cells or electroporated into ElectroTen-Blue® Electroporation-Competent Cells. Colonies were checked by colony PCR and restriction digestion prior to transfection. […] Anti-CD20 Antibody binding: HEK293F cells were taken up in staining buffer (PBS supplemented with 0.1% BSA and 0.02% NaN₃) and added to round bottom plates (1-3×10⁵/well in 100 μL). […] After washing twice in staining buffer, cells were incubated in 50 μL secondary antibody at 4° C. for 30 min. As a secondary antibody, R-Phycoerythrin (PE)-conjugated goat-anti-human IgG F(ab′)₂ was used, as described supra. Next, cells were washed once in staining buffer, re-suspended in 150 μL staining buffer and analyzed on a flow cytometer (FACSCanto-720, Becton Dickinson, San Diego, Calif., USA) and 10,000 events per sample were acquired at high flow rate. Binding curves were analyzed using non-linear regression (sigmoidal dose-response with variable slope) using GraphPad Prism V75.04 software (GraphPad Software, San Diego, Calif., USA).

human CD20 [3] = target: T1, human CD20; experiment: flow cytometry on Daudi cells (CD20-positive, CD3-negative); PE-conjugated goat anti-human IgG F(ab')2; median FI (PE)
Description: as §1, §2, §3

CD20 KDD mutant [4] = target: T2, CD20 KDD mutant; experiment: flow cytometry, HEK293F cells expressing CD20 KDD mutant
Description: as §4, §5

CD20 KDD mutant [5] = target: T2, CD20 KDD mutant; experiment: flow cytometry, HEK293F transfectants, MFI mutant/MFI wt at 10 µg/mL
Description: (§6) As a secondary antibody, R-Phycoerythrin (PE)-conjugated goat-anti-human IgG F(ab′)₂ was used, as described supra. Next, cells were washed once in staining buffer, re-suspended in 150 μL staining buffer and analyzed on a flow cytometer (FACSCanto-720, Becton Dickinson, San Diego, Calif., USA) and 10,000 events per sample were acquired at high flow rate. Binding curves were analyzed using non-linear regression (sigmoidal dose-response with variable slope) using GraphPad Prism V75.04 software (GraphPad Software, San Diego, Calif., USA).
(§7) Numbers indicate the percentage of binding to the CD20 mutants, relative to binding to wild type CD20, at 10 μg/mL. The percentage of binding was calculated by the following formula: (MFI binding to CD20 mutant)/(MFI binding CD20 wt) × 100%

CD20-AxP [6] = target: T3, CD20-AxP; experiment: as above
Description: as §6, §7

human CD3 = target: T4, human CD3 (human, UniProt P07766 22-207); experiment: flow cytometry on Jurkat cells (CD3-positive, CD20-negative); PE-conjugated goat anti-human IgG F(ab')2; median FI (PE)
T4 construct: CD3 as part of the TCR complex on Jurkat cells or human T cells; also called human CD3ε (epsilon)
T4 sequence (P07766 22-207 limits assumed): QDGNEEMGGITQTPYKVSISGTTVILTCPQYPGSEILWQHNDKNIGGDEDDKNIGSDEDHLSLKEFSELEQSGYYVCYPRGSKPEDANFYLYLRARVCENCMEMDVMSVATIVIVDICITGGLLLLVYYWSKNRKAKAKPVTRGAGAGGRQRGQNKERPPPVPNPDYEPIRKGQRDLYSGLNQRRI
Description: as §1, §2, §3

human CD20 [7] = target: T1, human CD20; experiment: flow cytometry on Daudi cells (CD20-positive, CD3-negative); PE-conjugated goat anti-human IgG F(ab')2; median FI (PE); remark: listed apart in the source
Description: as §1, §2, §3

CD20-AxP [8] = target: T3, CD20-AxP; experiment: flow cytometry on HEK293F cells transiently expressing CD20-AxP (A170S/P172S); PE-conjugated goat anti-human IgG F(ab')2; MFI
Description: as §4, §5

| Binder | EC50 (read off the curve) (human CD20 [1]) | EC50 (read off the curve) (human CD20 [2]) | EC50 (read off the curve) (human CD20 [3]) | binding result (CD20 KDD mutant [4]) | % of wt CD20 binding (CD20 KDD mutant [5]) | % of wt CD20 binding (CD20-AxP [6]) | EC50 (read off the curve) (human CD3) | EC50 (read off the curve) (human CD20 [7]) | EC50 (read off the curve) (CD20-AxP [8]) |
| --- | --- | --- | --- | --- | --- | --- | --- | --- | --- |
| B1 | ~2 µg/mL |  |  |  |  |  |  |  |  |
| B2 |  | ~0.1 µg/mL | ~0.9 µg/mL | no binding (tested: 0.0015-10 µg/mL) | 3% | 92% |  |  |  |
| B3 | ~0.6 µg/mL |  |  |  |  |  |  |  |  |
| B4 |  | ~0.1 µg/mL |  | no binding (tested: 0.0015-10 µg/mL) | 5% | 112% | ~0.06 µg/mL | ~0.3 µg/mL | ~0.2 µg/mL |
